From the DeepSol protein solubility set

Assay: soluble on expression in E. coli; label from the status in PepcDB or PDB records

MTSKVGPVALKTFREKLGPELLEVFDKSYKSFTDVQVLSGTHLLNLSDVVVESPTGSGKTLAFVLPMMRMIQNAKLQPADIGALILSPSRELCSQIVSVIQPFAEKLNLTVETVTGGQKVDKNIKMFKNKNVNILVATPGRLFQIIQHEKTLIARKMRTLQLLVIDEADRFNEIQFEDHMREILSCIPKQRRTGLFSATQVKEEDDLMVFGLRNAKQVKVAQERNSAAPSTLKNYYVECRADEKTSVCLEFIRQRTDKKILIFFPSCNSVRYFYKIFERCLGKRPLFAVHGKCSNPHRASQIKAFSDSTNGVMISTDVMARGIDISDIDWVIQFDLPKHSSWFVHRAGRTARCGREGNALILIASEQLAYVNFLDNHEKVKLDEIKVPTNNSRKSEELRQKMIKIQVSDRAILEAGTRAFVSHVESYAKHDCHLICSLDDLNVVGLANSYALLRLPKMRELSQRKDLDMFDRSAIETSEIKYADVKLEANRETVMKEKHEKKVETLAAKDKKRREKEARKLKKMGGRFRNGGGTGRKAEEKKALKRKAEEEDDAQNDIRLLKRIKRGKLSKKEIKDVL
soluble on expression in E. coli: not soluble

MEEVGGNGGPARIAECGKIGSGTINSNVVPSVNLPSPSVKPSVTPSVKKPPHVIRSDYSKPREKPAKVAKKPTVKNDKKPKPVAIVAPTGIIKTFKTTPNPNRNL
soluble on expression in E. coli: soluble

MAQSKPAYKVADIKLADFGRKEIILAENEMPGLMAMRSKYGPSQPLKGARIAGCLHMTIQTAVLIETLTALGAEVQWSSCNIFSTQDHAAAAIAQTGVPVYAWKGETDEEYEWCIEQTIVFKDGQPLNMILDDGGDLTNLVHAKYPQYLAGIRGLSEETTTGVHNLAKMLAKGDLKVPAINVNDSVTKSKFDNLYGIRESLPDGIKRATDVMLAGKVAVVAGYGDVGKGSAASLKAFGSRVIVTEIDPINALQAAMEGYEVTTLEEAAPKANIIVTTTGCKDIVTGKHFELLPNDAIVCNVGHFDCEIDVKWLNTNATKKDTIKPQVDRYTLKNGRHVILLAEGRLVNLGCATGHPSFVMSNSFTNQVLAQVELWTKFGTPQEYKLGLYVLPKTLDEEVAYLHLAQLGVKLTKLSDEQASYLGVPVAGPYKPDHYRY
soluble on expression in E. coli: not soluble

ADQRIKVAKPVVEMDGDEMTRIIWQFIKEKLILPHVDVQLKYFDLGLPNRDQTNDQVTIDSALATQKYSVAVKCATITPDEARVEEFKLKKMWKSPNGTIRNILGGTVFREPIICKNIPRLVPGWTKPITIGRHAHGDQYKATDFVVDRAGTFKIVFTPKDGSSAKQWEVYNFPAGGVGMGMYNTDESISGFAHSCFQYAIQKKWPLYMSTKNTILKAYDGRFKDIFQEIFEKHYKTDFDKYKIWYEHRLIDDMVAQVLKSSGGFVWACKNYDGDVQSDILAQGFGSLGLMTSVLVCPDGKTIEAEAAHGTVTRHYREHQKGRPTSTNPIASIFAWTRGLEHRGKLDGNQDLIRFAQTLEKVCVETVESGAMTKDLAGCIHGLSNVKLNEHFLNTSDFLDTIKSNLDRALGRQ
soluble on expression in E. coli: soluble

MRKLLAVFSKGRWKMEQKLQEQLDGLLEKYTELLLGETNDELKEEVKQWILYTHIAKSMPPLAKHWNATYPDAKQGIKEIIQHIKELNEAHRNKQLEHHHHHH
soluble on expression in E. coli: soluble

MGSDKIHHHHHHMKIGVFVPIGNNGWLISTHAPQYMPTFELNKAIVQKAEHYHFDFALSMIKLRGFGGKTEFWDHNLESFTLMAGLAAVTSKIQIYATAATLTLPPAIVARMASTIDSISGGRFGVNLVTGWQKPEYDQMGMWPGDDYFASRYDYLTEYVQVLRDLWGTGRSDFKGDYFTMNDCRVSPRPSQPMKVICAGQSDAGMAFSAQHADYNFCFGKGVNTPTAFAPTAARMMQAAEKTGRDVGSYVLFMVIADETDEAARAKWEHYKAGADEEALAWLTEQSQKDTRSGSDTNVRQMADPTSAVNINMGTLVGSYASVARMLDEVASVPGTDGVLLTFDDFLAGIDAFGERIQPLMRCRNHIASVTREVA
soluble on expression in E. coli: not soluble

MRPCRTGREQMTDTTMQLLSQGTDHVKVPDFDILAEGKTLSGVAERLMSLSLTDNRGFEADQLTITLDDADGQLQLPPRGARLTVLIGWKGEPLTEKGTCRFNLSMQHPFQLSLSVF
soluble on expression in E. coli: not soluble

MSLENFRSNVRKPTMSLQIAVEKVRWLAAGLLELNGCDADIAQDVAEHMIEAERYGFASHGVTLLPKYLENIARGDVTANARPECLTSEGNLQRFHAHNGFGQHAGKVAVNAAIEQAKRRGFCLLTLCHAHHLGRMGHYGQMVADQGLAMLAMSNVTGRPALVAPWGGAEPRMTTNPFCFAWPFSDGRPPILVDFATSSMALNKARVMSSTGKQAAPGQLIDAQGNPSNDPGVLFSNPPGALLPFGEHKGFGLALMIEMMAGILSGGDTIAEDHQTDGSAHNHLFALIIDPDQFTDLAGEKGQFFADYLLATQPQPGGNPVIYPGMPEAANRERNAKMITIPVSFWSWVVEHYARKGIDLGLHPQESALAEGHHHHHH
soluble on expression in E. coli: soluble

MPPTGIFFNVNGKDIKEENVDPELTLAYYLRNKLGLRGTKLGCEEGVCGSCTVVLGTWDDSLNKAVYSAVNACLVPLFHVHKTFVITVEGVGSRDKIHPIQDRMARGHAVQCGFCSPGFVMSAYALLRNHPNPTIEQINAAIRANLCRCTGYRPILEALYSFSSSGGGCCGGKKAGAGCCKDLSSEDEAYEKLTSFNDFPEYDPSQEIIFPPSLRIFVDSENPVTLKGDRIELLLPKSIEQFKEFKKDRTVISSGLITRFIATRNPKEFSQKWITTKYVKEFNEVIENPETVVIGAAVNIQKMSDILSRSLSQNIGKEVDAFIKKFSSPQIANFATWTGGIVSGAKSSISVSDLLLLFNVLNAKLTLLTDSGDLTQVNIEEFVEKKLFATNTIVNTVFSSSITGQLFCLKLGETSEQDSTSFNFAALVGNNISRIFVGLGGPPKRLTSLEEHIFALKNLDVPDLCKTSGMGENKNIKIALTRLSKFMKNVEKTAETVDGLNYLQYFKPTERKSVGRPLANYFNERAITGEALYVNDIQTYNPVHLGFVLSTVPHAEILSIDATEALKLEGVVGFFGASDVPGNNSPGLQISNMNLPDDATIFADKKVESVGQVVGVIAANDVLLARRAAKLVKLEYKELPALVELKDAIVAKSLLGKVRHFGKSEYLVNESLVHSYKVLEGESSLGSQEHFYLETQSSLNYRIVHCSTQGTSFTQLMVAETMKIPAHKIIVKTKRMGGAFGGKLNNASWIACICSVVAKKLNRPTYGVGINSDGKVQGIHHQAWLNGGWSKDHTEGVTMVMGQFVDDVYNMGTVRYDGYPVKTNTNSNTAFRGYGNPQAKLVSEGVMRRIAREVGKSTEEVKKLNFAFEGEKRYLSGNIYSDAHIECWEYCTRWSDFEKRKETIENFNKTSKIVKRGIAMSSVRLALSHPGPPGHGVASLMINLDGSIQLSIGGTEMGQGLNQKMLQVCSEALKRPIDTITIVDCSTDKITNAPETGASHNADTNGLAVLACCERIMSRLQPIIDKNDGDWEKSIRDAYGAYVPLQCTEYGSVDREKLSIGEFEYPYNTTGACAVEMEVDTMTGYNRLLRVDIVMDVGESLNPAIDIGQIEGAFMQGYGLVTCEKITFNKETGQLNQNSAGQYKIPKSSDVPKDFRVKLLGINKANGAKVYSSKGIGEPPLMMSCGAVHSCIMNCIDDWRKENGIDKFVDTISPLSADKIQELCSCNN
soluble on expression in E. coli: not soluble

MAPRVITLSPANTELAFAAGITPVGVSSYSDYPPQAQKIEQVSTWQGMNLERIVALKPDLVIAWRGGNAERQVDQLASLGIKVMWVDATSIEQIANALRQLAPWSPQPDKAEQAAQSLLDQYAQLKAQYADKPKKRVFLQFGINPPFTSGKESIQNQVLEVCGGENIFKDSRVPWPQVSREQVLARSPQAIVITGGPDQIPKIKQYWGEQLKIPVIPLTSDWFERASPRIILAAQQLCNALSQVDLEHHHHHH
soluble on expression in E. coli: soluble

MSLTTSPDARWTRRRTEKQRRLEQVRTLADGVVLPTDKIVAALEALLVSGDRVVLEGNNQKQADFLSRALAKVDPGKVHDLHMIMPSVGRAEHLDLFEQGIARKLDFSFAGTQSLRISQLLEDGLLEIGAIHTYIELYSRLVVDLIPNVVLAAGFMADRAGNIYTGPSTEDTPALIEPAAFSDGIVIVQVNQLVDDVSELPRVDIPASWVDFVVVADKPFYIEPLFTRDPRHIKPVHVLMAMMAIRGIYEKHNVQSLNHGIGFNTAAIELILPTYGESLGLKGKICRNWTLNPHPTLIPAIESGWVESVHCFGTELGMENYIAARPDVFFTGRDGSLRSNRQLCQLAGQYAVDLFIGATLQVDGDGHSSTVTRGRLAGFGGAPNMGHDPRGRRHATPAWLDMRQQNESGPDAYLERGKKLVVQMVETFQEGGKPTFVETLDAVEVAKKSGMPLAPIMIYGDDVTHLLTEEGIAYLYKARSLEERQAMIAAVAGVTVIGLRHNPKDTARMRREGLIALPEDLGIRRTDASREGHHHHHH
soluble on expression in E. coli: not soluble

MSSRQGGKMKPLKQKKKQQQDLDPEDIAFKEKQKADAAAKKALMANMKSGKPLVGGGIKKSGKK
soluble on expression in E. coli: soluble
